T1: human GPA33 expressed on CHO-K1 cells (hGPA33-expressing cells co-expressing GFP) (human, UniProt Q99795 22-319)
T1 construct: whole, on cells; CHO-K1 transfected with an hGPA33 expression vector (ORIGENE) co-expressing GFP
T1 sequence (looked up): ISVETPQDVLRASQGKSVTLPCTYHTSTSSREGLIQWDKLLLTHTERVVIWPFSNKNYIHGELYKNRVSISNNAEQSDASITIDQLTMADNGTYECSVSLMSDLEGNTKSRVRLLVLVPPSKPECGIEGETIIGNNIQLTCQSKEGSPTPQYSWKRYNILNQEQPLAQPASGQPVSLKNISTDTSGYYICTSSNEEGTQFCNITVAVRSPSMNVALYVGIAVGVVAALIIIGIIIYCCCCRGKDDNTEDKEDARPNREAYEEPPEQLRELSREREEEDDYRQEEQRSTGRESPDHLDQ

T2: mouse GPA33 expressed on CHO-K1 cells (mGPA33-expressing cells) (mouse, UniProt Q9JKA5 22-319)
T2 construct: whole, on cells
T2 sequence (looked up): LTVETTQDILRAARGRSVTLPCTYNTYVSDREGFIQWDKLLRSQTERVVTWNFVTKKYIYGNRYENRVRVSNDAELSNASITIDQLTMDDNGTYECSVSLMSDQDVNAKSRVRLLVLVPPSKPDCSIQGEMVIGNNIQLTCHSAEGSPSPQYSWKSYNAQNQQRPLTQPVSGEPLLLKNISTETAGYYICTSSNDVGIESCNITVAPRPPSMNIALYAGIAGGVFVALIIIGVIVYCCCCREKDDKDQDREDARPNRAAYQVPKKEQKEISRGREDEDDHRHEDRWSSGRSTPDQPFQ


Legend:
[1] = system: Wnt/β-catenin signal; experiment: Wnt/β-catenin reporter EC50 in 293STF cells expressing GPA33; assay type: cell-based, human
Procedure: (§1) The Wnt/β-catenin signal promoting activity of the anti-GPA33 antibody scFv-Rspo fragment fusion recombinant prepared in Example 18 was measured as follows. ONE-Glo™ + Tox Luciferase Reporter and Cell Viability Assay (Promega) was used for the measurement. […] The cells into which each vector was introduced were cultured for 2 days in DMEM medium containing 10% FBS (Nichirei), and then the cells were collected and seeded at 100 µL/well on a CulturPlate-96 (PerkinElmer). The next day, 100 µL of (1) control medium or (2) medium containing recombinant Rspo1FL-Fc or various anti-GPA33 antibody scFv-Rspo fragment fusion recombinant proteins prepared in Example 10 (10-fold serial dilution between 10000 and 0.001 ng/mL, final concentration 5000 to […]) was added to each well. […] The fluorescence value was measured using a Microplate Reader SH-9000 (CORONA). 100 µL of ONE-Glo (trademark) Reagent (Promega) was added to the plate and incubated at room temperature for 3 min, after which the luminescence value was measured using a NIVO microplate reader (PerkinElmer). […] Samples with low activity for which the EC50 value could not be determined were marked NC. […]
(§2) The Wnt/β-catenin signal promoting activity of the anti-GPA33 antibody scFv-Rspo fragment-Fc conjugate R1CRD-hFcm-tCAP-G17 prepared in Example 19 was measured as shown in Example 20. […]

[2] = system: Wnt/β-catenin signal; experiment: Wnt/β-catenin reporter EC50 in 293STF cells expressing MOG; assay type: cell-based, human; details: NC = low activity, EC50 could not be determined (taken as >30 nM for the ratio)
Procedure: as §1, §2

[3] = system: Mouse small intestinal organoids; experiment: Mouse small intestinal organoid culture; assay type: cell-based; parameters: key: those in which clear proliferation was observed are indicated with ○; those in which proliferation was observed but to a weak extent are indicated with △; those in which no proliferation was observed are indicated with ×
Procedure: Mouse small intestinal organoid culture using anti-GPA33 antibody scFv-Rspo fragment fusion (Example 18) and anti-GPA33 antibody scFv-Rspo fragment-Fc conjugate (Example 19) was performed as shown below. Mouse small intestinal organoids (VERITAS ST-70931) were maintenance cultured in ENR medium obtained by adding 2 µg/mL of the recombinant Rspo1FL-Fc prepared in Example 10 to EN medium (DMEM/F-12 containing penicillin/streptomycin, 10 mM HEPES, GlutaMAX, 1xN2, 1xB27 (all Gibco), 1 mM N-acetylcysteine (FUJIFILM Wako Pure Chemical), 50 ng/mL mouse EGF (Gibco), and 100 ng/mL mouse Noggin (PEPROTECH)), or ENR+WA medium (DMEM/F-12 containing penicillin/streptomycin, 10 mM HEPES, GlutaMAX, 1xN2, 1xB27 (all Gibco), […] N-acetylcysteine (FUJIFILM Wako Pure Chemical), 50 ng/mL mouse EGF (Gibco), and 100 ng/mL mouse Noggin (PEPROTECH), 10% Afamin/Wnt3a CM (MBL), and 500 nM A-83-01 (FUJIFILM Wako Pure Chemical)). Mouse small intestinal organoids were collected with Gentle Cell Dissociation Reagent (STEMCELL), resuspended in EN medium and Matrigel (Corning), and seeded onto 48-well plates. 250 µL of (1) EN medium, (2) EN medium containing recombinant Rspo1FL-Fc (20 ng/mL or 1 µg/mL) prepared in Example 10, or (3) EN medium containing anti-GPA33 antibody scFv-Rspo fragment fusion or anti-GPA33 antibody scFv-Rspo fragment-Fc conjugate ([…]) was added to each well. The medium was changed once every three days, and the cells were cultured for six days.
Comparing organoids on the first day (Day 1) and the fifth day (Day 5) after seeding, those in which clear proliferation was observed are indicated with ○, those in which proliferation was observed but to a weak extent are indicated with △, and those in which no proliferation was observed are indicated with ×. Samples that were not evaluated are indicated with ND.

[4] = biological target: T1, human GPA33 expressed on CHO-K1 cells …; experiment: FACS, 0.1 µg scFv on GPA33-expressing CHO-K1 cells, anti-His-biotin and SA-PE detection
[5] = biological target: T2, mouse GPA33 expressed on CHO-K1 cells …; experiment: as above

Molecule	EC50 ([1]; 293STF cells expressing GPA33, Afamin/Wnt3a 883 ng/mL, 18 hr)	EC50(MOG)/ EC50(GPA33) ([1]; ratio, NC assumed >30 nM)	EC50 [2]	organoid proliferation (Day 1 vs Day 5) ([3]; 0.2 ng/ml)	organoid proliferation (Day 1 vs Day 5) ([3]; 0.8 ng/ml)	organoid proliferation (Day 1 vs Day 5) ([3]; 1.4 ng/ml)	organoid proliferation (Day 1 vs Day 5) ([3]; 2 ng/ml)	organoid proliferation (Day 1 vs Day 5) ([3]; 20 ng/ml)	organoid proliferation (Day 1 vs Day 5) ([3]; 100 ng/ml (conjugate section head, or cells marked *))	organoid proliferation (Day 1 vs Day 5) ([3]; 1000 ng/ml)	binding result [4]	binding result [5]
R1CRD-hFcm-tCAP-G17: conjugate of azidized R1CRD-Fcm and DBCO-G17 scFv by tCAP and click reaction (conjugate) SRGIKGKRQRRISAEGSQACAKGCELCSEVNGCLKCSPKLFILLERNDIRQVGVCLPSCPPGYFDARNPDMNKCIKCKIEHCEACFSHNFCTKCKEGLYLHKGRCYPACPEGSSAANGTMECSSPAEPKSADKTHTCPPCPAPEAEGAPSVFLFPPKPKDTLMISRTPEVTCVVVDVSHEDPEVKFNWYVDGVEVHNAKTKPREEQYNSTYRVVSVLTVLHQDWLNGKEYKCAVSNKALPASIEKTISKAKGQPREPQVYTLPPSREEMTKNQVSLTCLVKGFYPSDIAVEWESNGQPENNYKTTPPVLDSDGSFFLYSKLTVDKSRWQQGNVFSCSVMHEALHNHYTQKSLSLSPGK scFv: QMQLVQSGGGLVKPGGSLRLSCAASGFTFSSYNMNWVRQAPGKGLEWVSSISSSGDFMYYADSVKGRFTISRDNAKNSLYLQMSSLRAEDTAVYYCAREGPGTPFDYWGQGTLVTVSSGGGGSGGGGSGSTGSAIQLTQSPSSLSASVGDRVTITCRASQSISSFLNWYQHKPGKAPKLLIYVASSLQSGVPSRFSGSGSGTDFTLTISSLQPEDFATYYCQQSHNTPYTFGQGTKLEIKEPRTPRPCLVPRGSHHHHHHGA	0.085 nM	47.53	4.04 nM	×	×	×	×	Δ	○	○		
2RC28-Cys anti-GPA33 scFv (Cys-containing sequence, His tag and Myc tag at the C-terminal side), expressed in Escherichia coli (scFv, Periplasmic expression in E. coli HB2151, purified on a His tag column; also called 2RC28 scFv; anti-GPA33 single chain Fv-His) scFv: EVQLVESGGGLVKPGGSLRLSCAASGFTFSSYSMNWVRQAPGKGLEWVSSISRDSTYIYYADSVKGRFTISRDNAKNSLYLQMNSLRAEDTAVYYCAREGVAGAFDIWGQGTMVTVSSGGGGSGGGGSGSTGSAIQLTQSPSSLSASVGDRVTITCRASQSISSYLNWYQQKPGKAPKLLIYIASSLQSGVPSRFSGSGSGTDFTLTISSLQPEDFATYYCQQSYNTWTFGQGTKVEIKAACTSAHHHHHHGAAEQKLISEEDLNGAA											binds	binds
